Results: article PMC5264208

T1: pentameric C-reactive protein (human), P02741
T1 chain: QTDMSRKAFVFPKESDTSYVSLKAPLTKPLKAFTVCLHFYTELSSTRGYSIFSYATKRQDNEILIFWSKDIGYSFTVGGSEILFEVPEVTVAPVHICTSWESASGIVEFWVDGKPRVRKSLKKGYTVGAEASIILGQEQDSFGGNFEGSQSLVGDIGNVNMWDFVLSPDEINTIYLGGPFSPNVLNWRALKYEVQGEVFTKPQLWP

T2: tissue-deposited CRP (human (endogenous in burn wound, skeletal muscle and carotid plaque tissue)), P02741
T2 chain: T1 chain

B1: pentameric C-reactive protein, P02741 19-224 (natural protein)
chain: T1 chain
B2: tissue-deposited CRP, P02741 19-224 (natural protein)
chain: T1 chain

Key:
[1] = molecular target: T1, pentameric C-reactive protein (human), …; test: native gel or EMSA; BN-PAGE (4-16% Bis-Tris) of pCRP (40 ug/ml) pelleted with liposomes or microvesicles after 1 h at 37 °C in 25 mM Tris-HCl pH 7.4, 150 mM NaCl, 2 mM CaCl2; pCRP and mCRP controls beside it; conditions: remark: other sources report otherwise
[2] = molecular target: T2, tissue-deposited CRP (human (endogenous …)); test: native gel or EMSA; SDS-PAGE with 1/20 of the usual SDS content (8-13% gels), burn wound lysates loaded in native buffer; control pCRP and mCRP beside them; Western blot with anti-CRP-8; conditions: remark: other sources report otherwise

Binder	stoichiometry N [1]	stoichiometry N [2]
B1	5	–
B2	–	5
